Measurements taken from publication PMC2807882, “Conservation of DNA-binding specificity and oligomerisation properties within the p53 family”.

T1: ΔNp73β (Homo sapiens, UniProt O15350-9 1-450)
T1 sequence: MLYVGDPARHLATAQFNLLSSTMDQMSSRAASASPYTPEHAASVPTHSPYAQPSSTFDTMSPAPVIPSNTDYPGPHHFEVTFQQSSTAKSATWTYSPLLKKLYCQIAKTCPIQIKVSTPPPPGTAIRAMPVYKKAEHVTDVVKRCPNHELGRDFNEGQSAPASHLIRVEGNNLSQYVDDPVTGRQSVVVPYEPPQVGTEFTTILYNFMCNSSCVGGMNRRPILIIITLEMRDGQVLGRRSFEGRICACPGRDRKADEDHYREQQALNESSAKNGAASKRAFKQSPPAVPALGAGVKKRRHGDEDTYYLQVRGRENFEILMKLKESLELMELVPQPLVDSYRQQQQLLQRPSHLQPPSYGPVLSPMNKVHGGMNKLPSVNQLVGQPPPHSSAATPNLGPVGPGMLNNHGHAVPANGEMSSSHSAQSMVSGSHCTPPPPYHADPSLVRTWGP

T2: ΔNp63β (Homo sapiens, UniProt Q9H3D4-4 1-461)
T2 sequence: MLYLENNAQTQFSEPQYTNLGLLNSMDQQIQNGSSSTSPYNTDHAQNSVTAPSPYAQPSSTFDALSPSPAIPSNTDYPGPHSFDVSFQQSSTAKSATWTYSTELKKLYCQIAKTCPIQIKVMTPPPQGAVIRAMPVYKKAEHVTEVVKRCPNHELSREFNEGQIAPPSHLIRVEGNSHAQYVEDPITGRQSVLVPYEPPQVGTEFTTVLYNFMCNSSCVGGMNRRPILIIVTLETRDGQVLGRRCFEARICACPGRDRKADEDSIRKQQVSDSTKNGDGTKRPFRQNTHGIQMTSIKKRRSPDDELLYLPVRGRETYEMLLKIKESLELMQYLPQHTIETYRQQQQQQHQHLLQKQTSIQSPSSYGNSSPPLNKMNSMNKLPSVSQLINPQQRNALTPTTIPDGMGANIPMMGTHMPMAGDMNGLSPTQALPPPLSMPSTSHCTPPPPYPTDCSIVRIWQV

T3: Drp53 (Danio rerio, UniProt P79734 1-373)
T3 sequence: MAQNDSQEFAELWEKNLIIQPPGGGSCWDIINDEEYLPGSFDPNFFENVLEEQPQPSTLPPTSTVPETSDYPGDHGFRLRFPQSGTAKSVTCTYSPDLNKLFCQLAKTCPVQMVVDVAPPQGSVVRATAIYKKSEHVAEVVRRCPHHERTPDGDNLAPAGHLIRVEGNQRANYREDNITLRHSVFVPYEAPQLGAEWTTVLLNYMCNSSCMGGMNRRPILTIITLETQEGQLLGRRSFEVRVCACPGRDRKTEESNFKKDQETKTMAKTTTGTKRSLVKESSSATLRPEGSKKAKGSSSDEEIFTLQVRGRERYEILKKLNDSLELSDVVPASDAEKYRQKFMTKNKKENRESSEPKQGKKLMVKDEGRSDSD

T4: p73CT (Homo sapiens, UniProt O15350 104-383)
T4 sequence: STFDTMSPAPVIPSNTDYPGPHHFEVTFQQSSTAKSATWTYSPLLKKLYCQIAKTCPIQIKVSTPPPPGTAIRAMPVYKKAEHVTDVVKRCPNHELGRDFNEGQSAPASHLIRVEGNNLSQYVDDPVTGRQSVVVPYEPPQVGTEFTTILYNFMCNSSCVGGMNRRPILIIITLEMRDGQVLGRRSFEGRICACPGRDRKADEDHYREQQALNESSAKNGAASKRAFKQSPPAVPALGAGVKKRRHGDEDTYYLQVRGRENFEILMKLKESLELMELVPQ

T5: Dmp53 (Drosophila melanogaster, UniProt Q9N6D8 1-385)
T5 sequence: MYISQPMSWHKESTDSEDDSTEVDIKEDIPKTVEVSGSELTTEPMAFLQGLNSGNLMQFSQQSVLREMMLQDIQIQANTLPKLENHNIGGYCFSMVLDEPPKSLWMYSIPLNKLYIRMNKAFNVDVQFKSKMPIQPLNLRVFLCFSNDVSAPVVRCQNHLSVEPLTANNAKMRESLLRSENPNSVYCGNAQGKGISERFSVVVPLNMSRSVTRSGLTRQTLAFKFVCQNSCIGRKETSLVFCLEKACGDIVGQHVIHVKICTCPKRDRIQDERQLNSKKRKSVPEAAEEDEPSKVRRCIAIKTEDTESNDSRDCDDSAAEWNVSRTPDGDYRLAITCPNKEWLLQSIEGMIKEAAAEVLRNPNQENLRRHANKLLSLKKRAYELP

B1: Ref competitor (dsDNA)
DNA 1: CGCGGACATGTCCGGACATGTCCCGC
DNA 2: GCGGGACATGTCCGGACATGTCCGCG
B2: Ref_Alexa488 (dsDNA)
DNA 1: GGACATGTCCGGACATGTCC
DNA 2: GGACATGTCCGGACATGTCC

Columns and labels:
ΔNp73β = target: T1, ΔNp73β; assay: anisotropy competition; 25 mM NaPi, 225 mM NaCl, 10% v/v glycerol, 5 mM DTT, 0.2 mg/mL BSA, 22°C; 20 nM labelled DNA; pH not stated for the binding assay; details: protein: recombinant; tags: N-terminal 6xHis-lipoyl-TEV tag, cleaved; chain copies: 4
ΔNp63β [1] = target: T2, ΔNp63β; assay: as above; details: protein: recombinant; tags: N-terminal 6xHis-lipoyl-TEV tag, cleaved; chain copies: 4
Drp53 = target: T3, Drp53; assay: as above; details: protein: recombinant; tags: N-terminal 6xHis-lipoyl-TEV tag, cleaved; chain copies: 4
p73CT = target: T4, p73CT; assay: as above; details: protein: recombinant; tags: N-terminal 6xHis-lipoyl-TEV tag, cleaved; chain copies: 4
Mmp53 = Mmp53 (Mus musculus, UniProt P02340 1-390); assay: as above; details: protein: recombinant; tags: N-terminal 6xHis-lipoyl-TEV tag, cleaved; chain copies: 4
Sequence of Mmp53 (P02340 whole entry): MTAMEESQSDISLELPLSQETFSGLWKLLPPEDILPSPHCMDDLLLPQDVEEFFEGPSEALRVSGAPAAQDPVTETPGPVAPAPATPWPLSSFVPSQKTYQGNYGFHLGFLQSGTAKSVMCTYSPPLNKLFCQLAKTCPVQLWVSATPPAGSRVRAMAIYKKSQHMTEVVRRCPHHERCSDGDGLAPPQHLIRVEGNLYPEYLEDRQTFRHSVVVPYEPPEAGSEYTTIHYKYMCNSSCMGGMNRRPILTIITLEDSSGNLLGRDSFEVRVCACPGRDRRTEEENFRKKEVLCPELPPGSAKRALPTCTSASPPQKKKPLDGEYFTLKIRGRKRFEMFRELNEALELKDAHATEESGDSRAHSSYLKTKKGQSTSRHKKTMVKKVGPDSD

Dmp53 = target: T5, Dmp53; assay: as above; details: protein: recombinant; tags: N-terminal 6xHis-lipoyl-TEV tag, cleaved; chain copies: 4
ΔNp63β [2] = target: T2, ΔNp63β; assay: fluorescence anisotropy, direct; 25 mM NaPi, 225 mM NaCl, 10% v/v glycerol, 5 mM DTT, 0.2 mg/mL BSA, 22°C; 20 nM labelled DNA; pH not stated for the binding assay; details: protein: recombinant; tags: N-terminal 6xHis-lipoyl-TEV tag, cleaved; chain copies: 4; label: 5'-Alexa488
Hsp53 = Hsp53 (Homo sapiens, UniProt P04637 1-393); assay: as above; details: protein: recombinant; tags: N-terminal 6xHis-lipoyl-TEV tag, cleaved; chain copies: 4; label: 5'-Alexa488
Sequence of Hsp53 (P04637 whole entry): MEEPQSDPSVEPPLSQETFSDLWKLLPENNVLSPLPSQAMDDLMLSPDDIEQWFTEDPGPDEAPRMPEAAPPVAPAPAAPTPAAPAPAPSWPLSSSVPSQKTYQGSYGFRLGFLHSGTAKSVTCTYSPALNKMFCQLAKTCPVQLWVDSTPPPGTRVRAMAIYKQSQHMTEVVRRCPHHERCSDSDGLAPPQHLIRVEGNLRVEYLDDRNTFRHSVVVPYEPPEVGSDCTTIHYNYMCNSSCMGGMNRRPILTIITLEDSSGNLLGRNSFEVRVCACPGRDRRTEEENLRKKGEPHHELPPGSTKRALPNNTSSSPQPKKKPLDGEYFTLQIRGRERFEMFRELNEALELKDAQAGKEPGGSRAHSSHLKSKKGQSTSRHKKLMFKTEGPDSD

Binder | Kd (ΔNp73β) | Kd (ΔNp63β [1]) | Kd (Drp53) | Kd (p73CT) | Kd (Mmp53) | Kd (Dmp53) | Kd (ΔNp63β [2]) | Kd (Hsp53)
B1 | -7.62 log10(M) | -7.45 log10(M) | -7.42 log10(M) | -6.83 log10(M) | -6.88 log10(M) | -7.56 log10(M) |  | 
B2 |  |  |  |  |  |  | -7.13 ± 0.04 log10(M) | -7.25 ± 0.03 log10(M)
